Reference: patent US11571480B2, “Multi-ligand drug conjugates and uses thereof” (priority 2015, dated 2023)

How the values were obtained:
Transplanted H460 tumor = experiment: Inhibitory assay of conjugates LDC11A, LDC11B against xenograf tumors; type: in vivo, nude mice; settings: H460 tumor, 10 mg/kg
Description: Animal: nude mice, aged 6-8 weeks, female
1) human large cell lung cancer cell H460, ovarian cancer cell SKOV3, breast cancer cell line HCC1954, and human breast cancer cell SK-BR-3 were incubated at 37° C., 5% CO2 in IMDM medium containing 10% fetal bovine serum, the cells were passaged every 2-3 days.
2) generation of tumors: 7×10^6 tumor cells were subcutaneously injected into the back of nude mice, and the mice were grouped for treatment after the tumor sizes were as large as about 100˜200 mm^3.
3) treatment: 3 mice/group, treated with LDC11A, LDC11B, as well as controls MMAE and PBS with doses of 5 and 10 mg/kg every 5 days, three injections.
4) the physical performance, body weights and tumor sizes of the animals were monitored. The number of animal death was recorded during the experiment.

[1] = Cytotoxicity test of conjugate LDC11B; type: cell-based, human; settings: human, 293A embryonic kidney cells, incubated 15-30 min, then 2-3 days
Description: (§1) Culture medium: RPMI 1640 Medium, no folic acid
(§2) 1) human lung cancer cell H460, ovarian cancer cell SKOV3, human embryonic kidney cell 293A were incubated at 37° C., 5% CO2 in RPMI 1640 medium containing 10% fetal bovine serum, the cells were passaged every 2-3 days.
(§3) 2) human lung cancer cell H460, ovarian cancer cell SKOV3, human embryonic kidney cell 293A were plated at 1×10^3 cells per well (96-well plate) and incubated for 8-12 h at 37° C., 5% CO2.
(§4) 3) Stock solutions of LDC conjugates or control were prepared in PBS solution. 100 μL/well of serially diluted LDC conjugates or control was added to the cells in the plate and incubated for 15-30 min at 37° C., 5% CO2. The culture medium in the wells was then removed by aspiration and the cells were incubated in fresh culture medium without conjugates (150 μL/well) for 2-3 days at 37° C., 5% CO2.
(§5) 4) CellTiter 96® Aqueous One Solution Cell Proliferation Assay (Promega) was added to each well to measure the amount of […] cells, and the plate was incubated in an incubator for 1 h at 37° C., 5% CO2.
(§6) 5) The plate was read at 490 nm on a microplate reader, and the cell survivals were compared for cells with or without the treatment of LDC conjugates. The LDC drug concentrations that are required for 50% cell death (IC50 values) were determined.

[2] = tested on: human lung cancer cell H460; experiment: Cytotoxicity test of conjugate LDC11B; type: cell-based; settings: H460, incubated 15-30 min, then 2-3 days
Description: as §1, §2, §3, §4, §5, §6

[3] = tested on: ovarian cancer cell SKOV3; experiment: Cytotoxicity test of conjugate LDC11B; type: cell-based, human; settings: SKOV3, incubated 15-30 min, then 2-3 days
Description: as §1, §2, §3, §4, §5, §6

For `CC[C@H](C)[C@@H]([C@@H](CC(=O)N1CCC[C@H]1[C@H](OC)[C@@H](C)C(=O)N[C@H](C)[C@@H](O)c1ccccc1)OC)N(C)C(=O)[C@@H](NC(=O)[C@H](C(C)C)N(C)C(=O)OCc1ccc(NC(=O)[C@H](CCCNC(N)=O)NC(=O)[C@@H](NC(=O)CCCCCN2C(=O)CC(SC[C@H](NC(=O)CNC(=O)[C@@H]3CCCN3C(=O)[C@H](CCCNC(=N)N)NC(=O)[C@H](CC(C)C)NC(=O)CNC(=O)[C@H](Cc3ccc(O)cc3)NC(=O)[C@H](CO)NC(=O)[C@H](Cc3c[nH]c4ccccc34)NC(=O)[C@H](Cc3c[nH]cn3)NC(=O)[C@@H](N)CCC(=O)O)C(=O)O)C2=O)C(C)C)cc1)C(C)C` (stereo partly drawn) [LDC11A, P11-MC-Val-Cit-PAB-MMAE, reference compound], the “animal death / toxicity (in words)” value (Transplanted H460 tumor) was “dead after the first injection”, the “Body weight of mice” value (Transplanted H460 tumor; Before Injection) was 24.46 g and the “Body weight of mice” value (Transplanted H460 tumor; Five days after Injection 1) was “Death”. The “Body weight of mice” value (Transplanted H460 tumor; Three days after Injection 1) was 18.25 g, the IC50 [1] was 1310 nM and the IC50 [2] was 667 nM. The IC50 [3] was 341 nM.
